Measured values as given in paper PMC10173203 (Science translational medicine, 2021).

Biological target: HA of A/Michigan/45/2015 H1N1 virus (Influenza A virus A/Michigan/45/2015 …, UniProt A0A1J0CXU0, strain)
Experiment: ELISA

B1: 047–09 4B06 mAb (human IgG1) (antibody, V domains shown)
VH: EVQLLESGGGLVQPGGSLRLSCAASGFIFGHFAMTWVRQAPGKGLEWLSAISGGGLNTYYAESVKGRFTMSRDNSKNTLYLQMGSLRAEDAAVYYCARFDSSGYNYVRGMVVWGQGTAV
VL: DIQMTQSPSSLSVSIGDRITITCQASQDIKNYLGWYQHKPGKAPKLLIYHVSNLEAGVPSRFSGSGSGTDFTFTISSLQPEDIGTYYCHQCYNLPYTFGQGTKVEIK
Does B1 bind?
Result: binds
